This experiment concerns the target recombinant GST-tagged CaN A subunit, Q08209. Nature of the experiment: in vitro peptide pull-down (biotinylated peptide, immunoblot quantification). The settings on record: chain shown with the change; recombinant GST-CaN (200 ng); parent: est. 47; read off a plot. For orientation: In western blotting, separated proteins are transferred to a membrane and probed.

Regarding MAGPHTVIFITGPHEE [APP peptide (APP core CaN-binding sequence in the PVIVIT peptide) V642F], the response (% CaN input recovered) stood at 44.

MAGPHTVFVITGPHEE [APP peptide (APP core CaN-binding sequence in the PVIVIT peptide) I641F]: the response (% CaN input recovered) stood at 23.

In the case of MAGPHTVIVIPGPHEE [APP peptide (APP core CaN-binding sequence in the PVIVIT peptide) T644P], the response (% CaN input recovered) came to 5.

Take MAGPHIVIVITGPHEE [APP peptide (APP core CaN-binding sequence in the PVIVIT peptide) T639I]: the response (% CaN input recovered) was 54.

For MAGPHTMIVITGPHEE [APP peptide (APP core CaN-binding sequence in the PVIVIT peptide) V640M], the response (% CaN input recovered) is 43.

As to MAGPHTVIIITGPHEE [APP peptide (APP core CaN-binding sequence in the PVIVIT peptide) V642I], the response (% CaN input recovered) came to 44.
